Reference: patent US20080108569A1, “Compositions and Methods for Treating Diseases Associated With Phlpp” (The Regents of the University of California, priority 2005, published 2008)

Legend:
[1] = biological target: T1, Akt (Homo sapiens, UniProt P31749); assay: phosphatase assay with purified GST-tagged PHLPP2 PP2C domain and pure phosphorylated Akt; type: biochemical; conditions: in 5 minutes, pure
T1 construct: 6His; made in house; host or cells: Akt1: baculovirus-infected Sf21 cells; HA-PHLPP2: transfected 293T cells, immunoprecipitated with HA antibody
Procedure: A GST-fusion protein of PHLPP-1α-PP2C was expressed in BL21 (DE3) and purified using glutathione-Sepharose. The GST-PP2C proteins were eluted from the beads in PBS containing 10 mM glutathione and 1 mM DTT, and dialyzed against 50 mM Tris (pH 7.4) and 1 mM DTT. His-tagged Akt was expressed and purified from baculovirus-infected Sf21 cells. Briefly, Sf21 cells were maintained in SF-900 II media (Invitrogen) and infected with baculovirus encoding His-Akt for 3 days. To obtain maximally phosphorylated Akt as substrate, the infected cells were treated with 10% FBS and calyculin A (100 nM) for 15 minutes prior to lysis. The infected cells were lysed in PBS containing 1% Triton X-100 and 10 mM imidazole, and His-Akt proteins were purified using Ni-NTA beads (Qiagen). The dephosphorylation reactions were carried out in a reaction buffer containing 50 mM Tris (pH 7.4), 1 mM DTT and 5 mM MnCl2 at 30° C. for 0-30 minutes. […]
GST-PP2C was expressed in BL21 bacterial cells; phosphatase assays were performed using the purified GST-PP2C construct conjugated to glutathione-sepharose and pure Akt as a substrate as described above. The activity of full length HA-PHLPP2 was assessed by expressing and immunoprecipitating PHLPP2 from 293T or H157 cell lysates. […]

[2] = system: LN229 cells; assay: growth rate of glioblastoma cells transfected with PHLPP (viable cells in G418 media); type: cell-based, human; conditions: glioblastoma cell line wild-type in PTEN
Procedure: (§1) LN229 cells were transfected with vector, HA-PHLPP or HA-ΔC. Approximately 30 hours post-transfection, the cells were switched to selection media (DMEM, 10% FBS, 1% penicillin/streptomycin and 800 μg/ml G418). The viable cells were counted after 7 days in selection media. The number of viable cells reflects the effect of PHLPP on cell proliferation. The G418 resistant stable cells were propagated and expanded for an additional 2-3 passages to obtain the number of cells needed for mice injection. For subcutaneous inoculation, 3×10^6 or 5×10^6 cells were injected into 4- to 5-week old female nude mice of BALB/c background. The size of tumors was measured once a week with a caliper, and tumor volumes were defined as (longest diameter)×(shortest diameter)^2×0.5. Tumors were excised from individual mice and flash frozen in liquid N2. The tumor samples were homogenized in buffer A, and detergent-solubilized lysates were subjected to SDS-PAGE and Western blotting analysis.

[3] = system: LN229 cells; assay: tumorigenicity of subcutaneously injected glioblastoma cells transfected with PHLPP; type: in vivo, nude mice of BALB/c background; conditions: subcutaneous injection
Procedure: as §1

T1 sequence (P31749 whole entry, the tested form may be a part): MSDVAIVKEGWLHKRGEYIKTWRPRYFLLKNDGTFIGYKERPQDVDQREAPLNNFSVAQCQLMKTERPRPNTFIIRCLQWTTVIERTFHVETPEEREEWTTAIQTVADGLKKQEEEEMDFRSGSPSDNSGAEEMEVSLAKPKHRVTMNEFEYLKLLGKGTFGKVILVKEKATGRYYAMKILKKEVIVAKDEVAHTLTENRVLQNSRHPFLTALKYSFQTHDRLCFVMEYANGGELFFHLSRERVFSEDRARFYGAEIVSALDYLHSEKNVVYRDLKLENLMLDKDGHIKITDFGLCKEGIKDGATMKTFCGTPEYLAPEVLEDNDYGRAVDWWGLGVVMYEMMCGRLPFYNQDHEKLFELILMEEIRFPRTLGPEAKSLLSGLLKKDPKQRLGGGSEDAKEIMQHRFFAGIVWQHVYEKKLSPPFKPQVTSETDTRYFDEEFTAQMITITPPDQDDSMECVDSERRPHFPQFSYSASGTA

Row | Molecule | dephosphorylation of Ser 473 (P473) [1] | dephosphorylation of Thr 308 (P308) [1] | decrease of the growth rate [2] | ability of the cells to induce tumors [3]
1 | PHLPP2 PP2C domain: GST-tagged PP2C domain of PHLPP2 (residues 780-1030) expressed in bacteria (protein, left off: a dimerising Fc or GST, GST-tagged PP2C domain of PHLPP2 (residues 780-1030) expressed in bacteria) TSTFWSHGLAEMAGQRNKLCVSALAMDSFAEGVGAVYGMFDGDRNEELPRLLQCTMADVLLEEVQQSTNDTVFMANTFLVSHRKLGMAGQKLGSSALLCYIRPDTADPASSFSLTVANVGTCQAVLCRGGKPVPLSKVFSLEQDPEEAQRVKDQKAIITEDNKVNGVTCCTRMLGCTYLYPWILPKPHISSTPLTIQDELLILGNKALWEHLSYTEAVNAVRHVQDPLAAAKKLCTLAQSYGCQDNVGAMV | 82+6% | 70+2% | – | –
2 | PHLPP: PH domain Leucine rich repeat Protein Phosphatase; HA-PHLPP-1α construct transfected into LN229 glioblastoma cells (SEQ ID NO: 2) (protein, listed as Homo sapiens, HA tag) MDSEIGCLIRFYAGKPHSTGSSERIQLSGMYNVRKGKMQLPVNRWTRRQVILCGTCLIVSSVKDSLTGKMHVLPLIGGKVEEVKKHQHCLAFSSSGPQSQTYYICFDTFTEYLRWLRQVSKVASQRISSVDLSCCSLEHLPANLFYSQDLTHLNLKQNFLRQNPSLPAARGLNELQRFTKLKSLNLSNNHLGDFPLAVCSIPTLAELNVSCNALRSVPAAVGVMHNLQTFLLDGNFLQSLPAELENMKQLSYLGLSFNEFTDIPEVLEKLTAVDKLCMSGNCVETLRLQALRKMPHIKHVDLRLNVIRKLIADEVDFLQHVTQLDLRDNKLGDLDAMIFNNIEVLHCERNQLVTLDICGYFLKALYASSNELVQLDVYPVPNYLSYMDVSRNRLENVPEWVCESRKLEVLDIGHNQICELPARLFCNSSLRKLLAGHNQLARLPERLERTSVEVLDVQHNQLLELPPNLLMKADSLRFLNASANKLESLPPATLSEETNSILQELYLTNNSLTDKCVPLLTGHPHLKILHMAYNRLQSFPASKMAKLEELEEIDLSGNKLKAIPTTIMNCRRMHTVIAHSNCIEVFPEVMQLPEIKCVDLSCNELSEVTLPENLPPKLQELDLTGNPRLVLDHKTLELLNNIRCFKIDQPSTGDASGAPAVWSHGYTEASGVKNKLCVAALSVNNFCDNREALYGVFDGDRNVEVPYLLQCTMSDILAEELQKTKNEEEYMVNTFIVMQRKLGTAGQKLGGAAVLCHIKHDPVDPGGSFTLTSANVGKCQTVLCRNGKPLPLSRSYIMSCEEELKRIKQHKAIITEDGKVNGVTESTRILGYTFLHPSVVPRPHVQSVLLTPQDEFFILGSKGLWDSLSVEEAVEAVRNVPDALAAAKKLCTLAQSYGCHDSISAVVVQLSVTEDSFCCCELSAGGAVPPPSPGIFPPSVNMVIKDRPSDGLGVPSSSSGMASEISSELSTSEMSSEVGSTASDEPPPGALSENSPAYPSEQRCMLHPICLSNSFQRQLSSATFSSAFSDNGLDSDDEEPIEGVFTNGSRVEVEVDIHCSRAKEKEKQQHLLQVPAEASDEGIVISANEDEPGLPRKADFSAVGTIGRRRANGSVAPQERSHNVIEVATDAPLRKPGGYFAAPAQPDPDDQFIIPPELEEEVKEIMKHHQEQQQQQQPPPPPQLQPQLPRHTQLDQLPDYYDTPL | – | – | approximately 50% | dramatically reduces
